The text below walks through data of patent US8685665 (CHEMO SERO THERAPEUTIC RESEARCH INSTITUTE, dated 2014).

First the molecules themselves.
T1: FRETS-VWF73, P04275
T1 chain: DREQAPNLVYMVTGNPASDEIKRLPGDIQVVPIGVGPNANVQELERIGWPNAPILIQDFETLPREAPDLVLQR

B1: ADAMTS-13W688X mutant R568A (protein)
chain: AAGGILHLELLVAVGPDVFQAHQEDTERYVLTNLNIGAELLRDPSLGAQFRVHLVKMVILTEPEGAPNITANLTSSLLSVCGWSQTINPEDDTDPGHADLVLYITRFDLELPDGNRQVRGVTQLGGACSPTWSCLITEDTGFDLGVTIAHEIGHSFGLEHDGAPGSGCGPSGHVMASDGAAPRAGLAWSPCSRRQLLSLLSAGRARCVWDPPRPQPGSAGHPPDAQPGLYYSANEQCRVAFGPKAVACTFAREHLDMCQALSCHTDPLDQSSCSRLLVPLLDGTECGVEKWCSKGRCRSLVELTPIAAVHGRWSSWGPRSPCSRSCGGGVVTRRRQCNNPRPAFGGRACVGADLQAEMCNTQACEKTQLEFMSQQCARTDGQPLRSSPGGASFYHWGAAVPHSQGDALCRHMCRAIGESFIMKRGDSFLDGTRCMPSGPREDGTLSLCVSGSCRTFGCDGRMDSQQVWDRCQVCGGDNSTCSPRKGSFTAGRAAEYVTFLTVTPNLTSVYIANHRPLFTHLAVRIGGRYVVAGKMSISPNTTYPSLLEDGRVEYRVALTEDRLPRLEEIRIWGPLQEDADIQVYRRYGEEYGNLTRPDITFTYFQPKPRQAWVW
B2: ADAMTS-13W688X mutant R370A (protein)
chain: B1 chain with R296A, A494R
B3: ADAMTS-13W688X mutant R659A (protein)
chain: B1 chain with A494R, R585A
B4: ADAMTS-13W688X mutant R326A (protein)
chain: B1 chain with R252A, A494R
B5: ADAMTS-13W688X mutant R498A (enzyme, human, UniProt Q76LX8 75-688, looked up)
chain: B1 chain with R424A, A494R
notes: Cysteine-rich domain mutant; also called R498(29); not shown: C-terminal FLAG tag
B6: ADAMTS-13W688X mutant R349A (enzyme, human, UniProt Q76LX8 75-688, looked up)
chain: B1 chain with R275A, A494R
notes: Disintegrin-like domain mutant; also called R349(11); not shown: C-terminal FLAG tag
B7: ADAMTS-13W688X mutant E634A (protein)
chain: B1 chain with A494R, E560A
B8: ADAMTS-13W688X mutant D635A (protein)
chain: B1 chain with A494R, D561A
B9: ADAMTS-13W688X mutant D343A (enzyme, human, UniProt Q76LX8 75-688, looked up)
chain: B1 chain with D269A, A494R
notes: Disintegrin-like domain mutant; also called D343(10); not shown: C-terminal FLAG tag
B10: ADAMTS-13W688X mutant R660A (enzyme, human, UniProt Q76LX8 75-688, looked up)
chain: B1 chain with A494R, R586A
notes: Spacer domain mutant; also called R660(68); not shown: C-terminal FLAG tag
B11: ADAMTS-13W688X mutant E327A (enzyme, human, UniProt Q76LX8 75-688, looked up)
chain: B1 chain with E253A, A494R
notes: Disintegrin-like domain mutant; also called E327(7); E327 mutant; not shown: C-terminal FLAG tag
B12: ADAMTS-13W688X mutant R488A (enzyme, human, UniProt Q76LX8 75-688, looked up)
chain: B1 chain with R414A, A494R
notes: Cysteine-rich domain mutant; also called R488(26); not shown: C-terminal FLAG tag
B13: ADAMTS-13W688X mutant D480A (enzyme, human, UniProt Q76LX8 75-688, looked up)
chain: B1 chain with D406A, A494R
notes: Cysteine-rich domain mutant; also called D480(24); not shown: C-terminal FLAG tag

Substitutions are numbered along the chain they refer to. Numbers in names are those of the source.

The first data set deals with T1, FRETS-VWF73, P04275.
Assay: not given
Regarding B1, the “cleaving activity to FRETS-VWF73, relative activity against wild type W688X” value is recorded as “the elevated enzymatic activity was observed”. For the molecule B2, the “cleaving activity to FRETS-VWF73, relative activity against wild type W688X” value is “the elevated enzymatic activity was observed”. Take B3: the “cleaving activity to FRETS-VWF73, relative activity against wild type W688X” value is on record as “the elevated enzymatic activity was observed”. On the same count and under the same terms, then B4, with “the elevated enzymatic activity was observed”; and B5, with “led to the significantly reduced enzyme activity”; and B6, with “led to the significantly reduced enzyme activity”.

The target of a further data set is immunoglobulin G (IgG) fractions isolated from acquired TTP patients.
Assay: not given
For B7, the “cleaving activity to FRETS-VWF73 per 1 min (ΔFU/min) with and without patient antibodies” value is “depending on patient antibody, K608A, E634A and D635A had a sufficient enzymatic activity”. For B8, the “cleaving activity to FRETS-VWF73 per 1 min (ΔFU/min) with and without patient antibodies” value was “depending on patient antibody, K608A, E634A and D635A had a sufficient enzymatic activity”.

The target in another data set is T2, von Willebrand factor derived from human plasma (human, UniProt P04275 764-2813).
T2 construct: mature; also called VWF; natural substrate VWF
Nature of the data set: ELISA, plasma VWF immobilized on plate, relative to wild type W688X. Here is the method:
Each of the purified mutants of Example 3 was evaluated for their binding ability to VWF derived from human plasma immobilized on ELISA plate as described in Non-patent reference 8. The concentration was normalized by sandwich ELISA using the anti-human ADAMTS-13 rabbit polyclonal antibody and an HRP labeled form of the anti-FLAGM2 murine monoclonal antibody (SIGMA CORPORATION) as described above and the VWF binding ability per unit concentration was quantified. Finally, the mutants were evaluated for a relative activity as compared to the specific activity of wild type W688X with no alanine substitution, the specific activity of which is 1.
B9: the binding result is recorded as “binds”. On the same count and under the same terms, with B10 the entry was “binds”; with B11, “binds”; with B5, “binds”. For the molecule B12, the binding result is recorded as “binds”.

Consider B6, for which the binding result was “binds”. Still for that read-out and setting: then B13, with “binds”.
